The target of one assay is HLA-B*73:01. Kind of assay: IEDB peptide-MHC binding, purified MHC/direct/fluorescence; filed as Kd, often an IC50 or EC50 that approximates it; ≥ and ≤ were set here for values at or beyond the usual limits of such assays.
Assay [1] concerns the target HLA-A*01:01. Kind of assay: IEDB peptide-MHC binding, purified MHC/competitive/fluorescence; ≥ and ≤ were set here for values at or beyond the usual limits of such assays. Conditions: source organism: Zaire ebolavirus.
For another assay, the target named is HLA-A*31:01. In words: IEDB peptide-MHC binding, purified MHC/direct/fluorescence; filed as Kd, often an IC50 or EC50 that approximates it; ≥ and ≤ were set here for values at or beyond the usual limits of such assays. Conditions: source organism: Cryptosporidium parvum.
The next assay addresses HLA-A*30:01. The assay is described as above. Conditions: source organism: Cryptosporidium parvum.
For the next assay, the target named is HLA-B*58:01. The description is as above.
The target of assay [2] is HLA-B*44:02. Described as above. The note with it: source organism: Cryptosporidium parvum.
Another assay addresses HLA-A*26:01. Described as above. The note with it: source organism: Cryptosporidium parvum.
Assay [3] deals with HLA-A*01:01. The description is as above.
The target of another assay is HLA-A*03:01. Described as above.
In the next assay the target is HLA-A*02:01. Described as above.
Assay [4] deals with HLA-A*11:01. The assay is described as above.
In another assay the target is HLA-B*15:01. Described as above.
The next assay concerns the target HLA-B*08:01. Described as above. The note with it: source organism: Cryptosporidium parvum.
For a further assay, the target named is HLA-B*40:01. The assay is described as above. The note with it: source organism: Cryptosporidium parvum.
The target of another assay is HLA-B*27:05. Described as above. The note with it: source organism: Cryptosporidium parvum.
The target in assay [5] is HLA-B*07:02. Described as above. The note with it: source organism: Cryptosporidium parvum.
In a further assay the target is HLA-A*69:01. The assay is described as above.
The target in a further assay is HLA-C*15:02. The description is as above. Conditions: source organism: human gammaherpesvirus 4.
The next assay has as its target HLA-C*07:02. Described as above. The note with it: source organism: human gammaherpesvirus 4.
The target of assay [6] is HLA-C*14:02. Described as above. The note with it: source organism: human gammaherpesvirus 4.
Another assay has as its target HLA-B*83:01. In words: IEDB peptide-MHC binding, purified MHC/competitive/fluorescence; filed as Kd, often an IC50 or EC50 that approximates it; ≥ and ≤ were set here for values at or beyond the usual limits of such assays.
The next assay deals with HLA-A*32:07. Described as above. The note with it: source organism: human gammaherpesvirus 4.
The next assay concerns the target HLA-A*68:23. Described as above. The note with it: source organism: human gammaherpesvirus 4.
For another assay, the target named is HLA-B*15:42. Described as above.
The target in a further assay is HLA-A*32:15. The description is as above. The note with it: source organism: human gammaherpesvirus 4.
The target in another assay is HLA-B*45:06. The assay is described as above.
For another assay, the target named is HLA-B*27:20. The assay is described as above. The note with it: source organism: human gammaherpesvirus 4.
The target in the next assay is HLA-C*04:01. Described as above.
The target of assay [7] is HLA-A*11:01. Described as above. The note with it: source organism: Influenza A virus H3N2.
The next assay addresses HLA-C*08:02. Kind of assay: IEDB peptide-MHC binding, purified MHC/direct/fluorescence; filed as Kd, often an IC50 or EC50 that approximates it; ≥ and ≤ were set here for values at or beyond the usual limits of such assays.
A further assay has as its target HLA-B*51:01. In words: IEDB peptide-MHC binding, purified MHC/competitive/fluorescence; filed as Kd, often an IC50 or EC50 that approximates it; ≥ and ≤ were set here for values at or beyond the usual limits of such assays. The note with it: source organism: Bacillus anthracis str. A2012.
The target of assay [8] is HLA-B*35:01. The assay is described as above. The note with it: source organism: Bacillus anthracis str. A2012.
Assay [9] concerns the target HLA-B*07:02. The assay is described as above. The note with it: source organism: Bacillus anthracis str. A2012.
Another assay addresses HLA-C*12:03. In words: IEDB peptide-MHC binding, purified MHC/direct/fluorescence; filed as Kd, often an IC50 or EC50 that approximates it; ≥ and ≤ were set here for values at or beyond the usual limits of such assays.
Assay [10] deals with HLA-B*44:02. Kind of assay: IEDB peptide-MHC binding, purified MHC/competitive/radioactivity; filed as Kd, often an IC50 or EC50 that approximates it; ≥ and ≤ were set here for values at or beyond the usual limits of such assays. Conditions: source organism: Homo sapiens.
A further assay addresses HLA-B*44:03. Described as above. Conditions: source organism: Homo sapiens.
The next assay has as its target HLA-B*57:01. The assay is described as above. Conditions: source organism: Homo sapiens.
Assay [11] addresses HLA-B*35:01. In words: IEDB peptide-MHC binding, purified MHC/direct/fluorescence; filed as Kd, often an IC50 or EC50 that approximates it; ≥ and ≤ were set here for values at or beyond the usual limits of such assays. Conditions: source organism: Vibrio vulnificus YJ016.
The target in the next assay is HLA-C*06:02. The assay is described as above. Conditions: source organism: Vibrio vulnificus YJ016.
The target of the next assay is HLA-B*46:01. Kind of assay: IEDB peptide-MHC binding, purified MHC/competitive/fluorescence; filed as Kd, often an IC50 or EC50 that approximates it; ≥ and ≤ were set here for values at or beyond the usual limits of such assays. Conditions: source organism: Vibrio vulnificus YJ016.
In assay [12] the target is HLA-C*14:02. Described as above. The note with it: source organism: Vibrio vulnificus YJ016.
The mark [13] stands for this setting: source organism: Cryptosporidium parvum.
Setting [14] is: source organism: human gammaherpesvirus 4.
Where [15] appears, read: source organism: Mycobacterium tuberculosis CDC1551.
[16] abbreviates: source organism: Camelpox virus M-96.
[17] abbreviates: source organism: Vibrio vulnificus YJ016.

Where only a bound is given, the exact number is not on record here.

Kd and IC50 data for eleven sequences are collected here from the Immune Epitope Database (IEDB).

As for FQANMFLTL, in the assay with HLA-B*73:01 (source organism: Bacillus anthracis), the Kd (as a rule, a measure of binding affinity in units of concentration) is at least 20 µM.
For the sequence GPFDAVLYY, the IC50 (in general, the concentration needed to halve the response being measured) with HLA-A*01:01 [1] was at least 172 µM.
KHNSAESAK: the Kd was at least 20 µM with HLA-A*31:01; 11.9 µM with HLA-A*30:01; at least 20 µM with HLA-B*73:01 (source organism: Cryptosporidium parvum Iowa II); at least 20000 nM in the assay with HLA-B*58:01 (setting [13]); at least 20 µM with HLA-B*44:02 [2]; at least 20 µM with HLA-A*26:01. The dissociation constant Kd in the assay with HLA-A*01:01 [3] (setting [13]) is at least 20000 nM; with HLA-A*03:01 (setting [13]), 12.3 µM; with HLA-A*02:01 (setting [13]), at least 20 µM; with HLA-A*11:01 [4] (setting [13]), at least 20000 nM; with HLA-B*15:01 (setting [13]), at least 20000 nM; with HLA-B*08:01 it was at least 20 µM. For the same sequence, the Kd with HLA-B*40:01 was at least 20 µM; with HLA-B*27:05, at least 20 µM; with HLA-B*07:02 [5], at least 20 µM; with HLA-A*69:01 (setting [13]) it was at least 20000 nM.
In the assay with HLA-A*01:01 [1], LTESDMDYH gave an IC50 of 41.6 µM.
Turning to MMAKSNSPF, the Kd with HLA-C*15:02 was at least 20 µM; with HLA-C*07:02, 3.16 µM; with HLA-C*14:02 [6], 8 nM; in the assay with HLA-B*83:01 (setting [14]) it was at least 5 µM; in the assay with HLA-A*32:07, 100 nM; with HLA-A*68:23, 43.1 nM. Moreover, the dissociation constant Kd is at least 5 µM with HLA-B*15:42 (setting [14]), 42.8 nM in the assay with HLA-A*32:15, at least 5 µM with HLA-B*45:06 (setting [14]) and 48.7 nM with HLA-B*27:20.
For the sequence RPREATIIY, the Kd with HLA-B*83:01 (setting [15]), with HLA-C*04:01 (setting [15]), in the assay with HLA-B*15:42 (setting [15]) and in the assay with HLA-B*45:06 (setting [15]) was at least 5 µM in each case.
Take SFGGFTFK: the Kd with HLA-A*11:01 [7] was found to be 44.8 nM.
Take YLSSWTPVV: the Kd with HLA-C*08:02 (source organism: Variola virus) was 74 nM; in the assay with HLA-A*02:01 (setting [16]), at most 0.001 µM; with HLA-A*69:01 (setting [16]), 154 nM.
Consider YPIVIAPAM, for which the Kd is 1010 nM with HLA-B*51:01, at most 0.1 nM with HLA-B*35:01 [8] and 13.8 nM with HLA-B*07:02 [9].
Consider YTAVVPLVY, for which the Kd with HLA-C*08:02 (source organism: Homo sapiens) was at least 20000 nM; with HLA-B*58:01 (source organism: Homo sapiens), 63.1 nM; with HLA-C*12:03 (source organism: Homo sapiens), 171 nM; with HLA-A*01:01 [3] (source organism: Homo sapiens) it was 143 nM; in the assay with HLA-A*03:01 (source organism: Homo sapiens) it was 4.54 µM; in the assay with HLA-A*11:01 [4] (source organism: Homo sapiens), 2500 nM. The Kd turned out to be 410 nM with HLA-B*15:01 (source organism: Homo sapiens); 1310 nM in the assay with HLA-A*69:01 (source organism: Homo sapiens); 7.78 µM with HLA-B*44:02 [10]; 5.54 µM in the assay with HLA-B*44:03; 208 nM in the assay with HLA-B*57:01.
In the case of YTMELCGAM, the Kd with HLA-C*12:03 (setting [17]) is 88 nM; in the assay with HLA-B*35:01 [11], 28 nM; with HLA-C*06:02, at least 20 µM; with HLA-B*83:01 (setting [17]), at least 5 µM; in the assay with HLA-C*04:01 (setting [17]), at least 5 µM; with HLA-B*15:42 (setting [17]), at least 5 µM. Besides, the Kd is 18 nM with HLA-B*46:01, at most 0.1 nM in the assay with HLA-C*14:02 [12] and at least 5 µM with HLA-B*45:06 (setting [17]).
